Paper PMC4117486, “Investigation of Endoglin Wild-Type and Missense Mutant Protein Heterodimerisation Using Fluorescence Microscopy Based IF, BiFC and FRET Analyses” (PLoS ONE, 2014)
Changes are numbered by the printed parent chain. Numbers in names are those of the source.

B1: TβRII, ECFP- or EYFP-tagged (receptor, UniProt P37173 23-567, looked up)
chain: TIPPHVQKSVNNDMIVTDNNGAVKFPQLCKFCDVRFSTCDNQKSCMSNCSITSICEKPQEVCVAVWRKNDENITLETVCHDPKLPYHDFILEDAASPKCIMKEKKKPGETFFMCSCSSDECNDNIIFSEEYNTSNPDLLLVIFQVTGISLLPPLGVAISVIIIFYCYRVNRQQKLSSTWETGKTRKLMEFSEHCAIILEDDRSDISSTCANNINHNTELLPIELDTLVGKGRFAEVYKAKLKQNTSEQFETVAVKIFPYEEYASWKTEKDIFSDINLKHENILQFLTAEERKTELGKQYWLITAFHAKGNLQEYLTRHVISWEDLRKLGSSLARGIAHLHSDHTPCGRPKMPIVHRDLKSSNILVKNDLTCCLCDFGLSLRLDPTLSVDDLANSGQVGTARYMAPEVLESRMNLENVESFKQTDVYSMALVLWEMTSRCNAVGEVKDYEPPFGSKVREHPCVESMKDNVLRDRGRPEIPSFWLNHQGIQMVCETLTECWDHDPEARLTAQCVAERFSELEHLDRLSGRSCSEEKIPEDGSLNTTK
notes: TβRII, TGF-β type II receptor; The methods name only the EYFP version; the results use an ECFP-tagged version; also called TβRII-EYFP; TGF-β type-II receptor; source: CHO cells, transiently co-transfected, in living cells
B2: endoglin wild-type, EYFP- or ECFP-tagged (receptor, human, UniProt P17813 26-658, looked up)
chain: ETVHCDLQPVGPERGEVTYTTSQVSKGCVAQAPNAILEVHVLFLEFPTGPSQLELTLQASKQNGTWPREVLLVLSVNSSVFLHLQALGIPLHLAYNSSLVTFQEPPGVNTTELPSFPKTQILEWAAERGPITSAAELNDPQSILLRLGQAQGSLSFCMLEASQDMGRTLEWRPRTPALVRGCHLEGVAGHKEAHILRVLPGHSAGPRTVTVKVELSCAPGDLDAVLILQGPPYVSWLIDANHNMQIWTTGEYSFKIFPEKNIRGFKLPDTPQGLLGEARMLNASIVASFVELPLASIVSLHASSCGGRLQTSPAPIQTTPPKDTCSPELLMSLIQTKCADDAMTLVLKKELVAHLKCTITGLTFWDPSCEAEDRGDKFVLRSAYSSCGMQVSASMISNEAVVNILSSSSPQRKKVHCLNMDSLSFQLGLYLSPHFLQASNTIEPGQQSFVQVRVSPSVSEFLLQLDSCHLDLGPEGGTVELIQGRAAKGNCVSLLSPSPEGDPRFSFLLHFYTVPIPKTGTLSCTVALRPKTGSQDQEVHRTVFMRLNIISPDLSGCTSKGLVLPAVLGITFGAFLIGALLTAALWYIYSHTRSPSKREPVVAVAAPASSESSSTNHSIGSTQSTPCSTSSMA
notes: endoglin (CD105), human, wild type; EYFP-tagged with the ECFP-tagged receptors and with soluble ECFP; ECFP-tagged with the EYFP-tagged mutants; both versions together for the homodimer; also called endoglin^wt-EYFP; endoglin^wt-ECFP; source: CHO cells, transiently co-transfected (50 ng of each construct per 100 000 cells), in living cells; not shown: EYFP (acceptor) or ECFP (donor), C-terminal, …
B3: endoglin S480C, EYFP-tagged (receptor, human, UniProt P17813 26-658, looked up)
chain: B2 chain with S455C
notes: endoglin (CD105), human, missense mutant S480C (found in a Scottish HHT family); site-directed mutagenesis on pCMV5-endoglin wild type, moved into pEYFP-N1; also called mutant S480C; source: CHO cells, transiently co-transfected (50 ng of each construct per 100 000 cells), in living cells; not shown: EYFP, C-terminal, kept
B4: endoglin G52V, EYFP-tagged (with an ECFP-tagged copy for the homodimer) (receptor, human, UniProt P17813 26-658, looked up)
chain: B2 chain with G27V
notes: endoglin (CD105), human, HHT1 missense mutant G52V; also called mutant G52V; source: CHO cells, transiently co-transfected (50 ng of each construct per 100 000 cells), in living cells; not shown: EYFP (acceptor) or ECFP (donor, homodimer only), C-terminal, kept
B5: ALK5, ECFP- or EYFP-tagged (receptor, UniProt P36897 34-503, looked up)
chain: LQCFCHLCTKDNFTCVTDGLCFVSVTETTDKVIHNSMCIAEIDLIPRDRPFVCAPSSKTGSVTTTYCCNQDHCNKIELPTTVKSSPGLGPVELAAVIAGPVCFVCISLMLMVYICHNRTVIHHRVPNEEDPSLDRPFISEGTTLKDLIYDMTTSGSGSGLPLLVQRTIARTIVLQESIGKGRFGEVWRGKWRGEEVAVKIFSSREERSWFREAEIYQTVMLRHENILGFIAADNKDNGTWTQLWLVSDYHEHGSLFDYLNRYTVTVEGMIKLALSTASGLAHLHMEIVGTQGKPAIAHRDLKSKNILVKKNGTCCIADLGLAVRHDSATDTIDIAPNHRVGTKRYMAPEVLDDSINMKHFESFKRADIYAMGLVFWEIARRCSIGGIHEDYQLPYYDLVPSDPSVEEMRKVVCEQKLRPNIPNRWQSCEALRVMAKIMRECWYANGAARLTALRIKKTLSQLSQQEGIKM
notes: ALK5, TGF-β type I receptor; The methods name only the EYFP version; the results use an ECFP-tagged version; also called ALK5-EYFP; source: CHO cells, transiently co-transfected, in living cells

Key:
Assay in all cases: FRET or BRET; microscopic FRET in living CHO cells, ECFP donor and EYFP acceptor, 50 ng of each construct per 100 000 cells, 24 h after transfection, HEPES buffered ringer solution; FRET index (FI) = FRET efficiency x area with FRET; FI<51 no interaction, 51-99 weak or false positive, >=100 interaction; at least 30 cells per sample
[1] = biological target: B2; settings: partners not purified
[2] = biological target: B3; settings: partners not purified
[3] = biological target: the molecule itself

Row | Binder | % of cells clearly FRET-positive (FRET index >=100) [1] [%] | % of cells in FRET index group 2 (FI 51-99, weak or false positive) [1] [%] | mean FRET index of the positive cells [1] [FRET index] | % of cells clearly FRET-positive (FRET index >=100) [2] [%] | % of cells in FRET index group 2 (FI 51-99, weak or false positive) [2] [%] | mean FRET index of the positive cells [2] [FRET index] | % of cells clearly FRET-positive (FRET index >=100) [3] [%] | mean FRET index of the positive cells [3] [FRET index] | % of cells in FRET index group 2 (FI 51-99, weak or false positive) [3] [%]
1 | B1 | 62 | 18 | 293 | 3 | 10 | 147 | – | – | –
2 | B2 | – | – | – | – | – | – | 100 | 373 | –
3 | B3 | 65 | 19 | 239 | – | – | – | – | – | –
4 | B4 | 51 | 27 | 222 | – | – | – | ≥ 75 | 204 | 15
5 | B5 | 36 | 16 | 243 | 13 | 30 | 129 | – | – | –
